Measurements published in patent publication EP2265632B1 (Elevation Biotech (Pty) Ltd., dated 2009).

Biological target: recombinant HIV-1BaL gp120 (HIV-1 BaL)
Assay: SPR (Biacore 3000), gp120BaL immobilised on CM5 chip, peptide as analyte

B1: 12p1 (RINNIPWSEAMM), 12-mer peptide (peptide)
peptide: H-RINNIPWSEAMM-NH2
notes: Quality control peptide of the SPR assay
With B1 the Kd was 1020 nM.
